Target: T1, Cdc6-associated kinase (Clb/Cdk1 kinases) (Saccharomyces cerevisiae, UniProt P00546)
T1 construct: 1 mg of protein extract from K4527, grown in YEPR at 25° C. or induced for 4 hours in YEPRG, was immunoprecipitated with 12CA5 Ab; endogenous in cells; host or cells: S. cerevisiae strain K4527 (W303 background, wild type, 5 copies of GAL-HA3CDC6); The kinase is endogenous; Only the Cdc6 bait is expressed from an introduced construct
Assay: Histone H1 kinase assay of Cdc6-associated kinase immunoprecipitated with 12CA5 Ab
Assay type: biochemical
Details: HA3Cdc6 immunoprecipitate from K4527 extract (GAL-HA3CDC6, induced 4 hours in YEPRG); FIG. 5D
Experimental: Protein extracts were prepared as in Schwob et al., 1994. For Clb2 kinase assays, […] of total proteins were immunoprecipitated using anti-Clb2 Ab (1:30, Amon et al., 1992). To assay Cdc6-associated kinase, HA3Cdc6 or Cdc6HA3 was immunoprecipitated with 12CA5 Ab (1:10) from the amounts of protein extracts indicated in figure legends. Histone Hi kinase activity was measured as previously described (Schwob et al., 1994).
D) Cdc6-associated kinase is inhibited by p40^SIC1. 1 mg of protein extract from K4527, grown in YEPR at 25° C. or induced for 4 hours in YEPRG, was immunoprecipitated with 12CA5 Ab and before the last washing step split into four aliquots. Kinase activity was measured in the absence or in the presence of the indicated amounts of purified p40^SIC1. R:Raffinose. G: Galactose. The addition of p40^SIC1 causes the appearance of two additional signals probably due to phosphorylation of p40^SIC1 by an aspecific kinase. E) Cdc28p co-immunoprecipitates with Cdc6p. Cdc6p was immunoprecipitated with 12CA5 Ab from protein extracts (5 mg) of K4527 cells grown at 25° C. in YEPR and induced for 4 hours in YEPRG. Protein A-Sepharose beads were boiled in SDS buffer and analysed by Western blot using Cdc28 Ab (1:500) ([…]. R: Raffinose. G: Galactose).

T1 sequence (P00546 whole entry): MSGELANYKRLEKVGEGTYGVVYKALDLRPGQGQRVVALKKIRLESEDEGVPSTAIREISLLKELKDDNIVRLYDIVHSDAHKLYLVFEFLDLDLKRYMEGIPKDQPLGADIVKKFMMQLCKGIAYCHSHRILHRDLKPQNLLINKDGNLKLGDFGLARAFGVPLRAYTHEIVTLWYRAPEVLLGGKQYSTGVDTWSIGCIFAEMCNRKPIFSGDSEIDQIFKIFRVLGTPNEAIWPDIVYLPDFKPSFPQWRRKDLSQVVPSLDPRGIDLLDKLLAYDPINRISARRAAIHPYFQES

B1: p40^SIC1: purified Clb-specific Cdk inhibitor protein of budding yeast, encoded by SIC1 (protein, UniProt P38634 1-284, looked up)
Protein SIC1: MTPSTPPRSRGTRYLAQPSGNTSSSALMQGQKTPQKPSQNLVPVTPSTTKSFKNAPLLAPPNSNMGMTSPFNGLTSPQRSPFPKSSVKRTLFQFESHDNGTVREEQEPLGRVNRILFPTQQNVDIDAAEEEEEGEVLLPPSRPTSARQLHLSLERDEFDQTHRKKIIKDVPGTPSDKVITFELAKNWNNNSPKNDARSQESEDEEDIIINPVRVGKNPFASDELVTQEIRNERKRAMLRENPDIEDVITYVNKKGEVVEKRRLTDEEKRRFKPKALFQSRDQEH
Cdc6-associated histone H1 kinase activity on addition of purified p40^SIC1: inhibited

— patent US20020034770A1, “COMPOUNDS THAT INTERFERE WITH DNA REPLICATION IN RAPIDLY PRO[…] FOR USE IN CANCER THERAPY AND METHODS FOR SCREENING FOR SUCH COMPOUNDS” (priority 1996, published 2002)
